Test results from article PMC4855144, “Novel Coronin7 interactions with Cdc42 and N-WASP regulate actin organization and Golgi morphology” (Scientific Reports, 2016).

Tests used:
Assay in all cases: pull-down; Glutathione-Sepharose beads coated with GST alone or GST-GTPase fusions pre-loaded with GDP (DN) or GTPγS (CA), incubated with lysates of HEK293T cells expressing GFP-CRN7 WT or CRIB mutants; blot with GFP mAb K3-184-2 or anti-N-WASP; ImageJ quantification, input set at 100%
Conditions in all cases: one partner purified
[1] = target: T1, GST-Cdc42 dominant negative (DN/T17N), preloaded with GDP (UniProt P60953 1-191, T17N)
T1 construct: Preloaded with GDP; also called Cdc42DN; Cdc42 DN; source: E. coli BL21, purified (Glutathione Sepharose), held on glutathione-Sepharose beads
T1 sequence (P60953 whole entry T17N): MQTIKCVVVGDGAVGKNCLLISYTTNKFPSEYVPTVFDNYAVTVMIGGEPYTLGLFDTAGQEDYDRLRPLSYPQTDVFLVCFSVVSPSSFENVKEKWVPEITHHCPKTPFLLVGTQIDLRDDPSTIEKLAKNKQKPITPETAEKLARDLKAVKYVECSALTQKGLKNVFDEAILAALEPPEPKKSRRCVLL

[2] = target: GST-Rac1 dominant negative (DN/T17N), preloaded with GDP (UniProt P63000 1-192, T17N)
[3] = target: GST-Rac1 constitutively active (CA/Q61L), preloaded with GTPγS (UniProt P63000 1-192, Q61L)

percent of input bound [1]: 65 % of input
percent of input bound [2]: ~17 % of input
percent of input bound [3]: 7 % of input
B1: GFP-CRN7 WT (human Coronin7, full length, GFP on its N-terminus) (natural protein, UniProt P57737 1-925, looked up)
chain: MNRFRVSKFRHTEARPPRRESWISDIRAGTAPSCRNHIKSSCSLIAFNSDRPGVLGIVPLQGQGEDKRRVAHLGCHSDLVTDLDFSPFDDFLLATGSADRTVKLWRLPGPGQALPSAPGVVLGPEDLPVEVLQFHPTSDGILVSAAGTTVKVWDAAKQQPLTELAAHGDLVQSAVWSRDGALVGTACKDKQLRIFDPRTKPRASQSTQAHENSRDSRLAWMGTWEHLVSTGFNQMREREVKLWDTRFFSSALASLTLDTSLGCLVPLLDPDSGLLVLAGKGERQLYCYEVVPQQPALSPVTQCVLESVLRGAALVPRQALAVMSCEVLRVLQLSDTAIVPIGYHVPRKAVEFHEDLFPDTAGCVPATDPHSWWAGDNQQVQKVSLNPACRPHPSFTSCLVPPAEPLPDTAQPAVMETPVGDADASEGFSSPPSSLTSPSTPSSLGPSLSSTSGIGTSPSLRSLQSLLGPSSKFRHAQGTVLHRDSHITNLKGLNLTTPGESDGFCANKLRVAVPLLSSGGQVAVLELRKPGRLPDTALPTLQNGAAVTDLAWDPFDPHRLAVAGEDARIRLWRVPAEGLEEVLTTPETVLTGHTEKICSLRFHPLAANVLASSSYDLTVRIWDLQAGADRLKLQGHQDQIFSLAWSPDGQQLATVCKDGRVRVYRPRSGPEPLQEGPGPKGGRGARIVWVCDGRCLLVSGFDSQSERQLLLYEAEALAGGPLAVLGLDVAPSTLLPSYDPDTGLVLLTGKGDTRVFLYELLPESPFFLECNSFTSPDPHKGLVLLPKTECDVREVELMRCLRLRQSSLEPVAFRLPRVRKEFFQDDVFPDTAVIWEPVLSAEAWLQGANGQPWLLSLQPPDMSPVSQAPREAPARRAPSSAQYLEEKSDQQKKEELLNAMVAKLGNREDPLPQDSFEGVDEDEWD
notes: Coronin7 (CRN7), human, wild type, full length; CRIB motifs at 116-130 (NT-CRIB) and 582-599 (CT-CRIB); also called full-length CRN7; source: HEK293T, transfected (PEI), in lysate; not shown: GFP, N-terminal, kept
